Assay results taken from publication PMC3931408 (Journal of Agricultural and Food Chemistry, 2014).

Assays:
[1] = biological target: L-arabinose isomerase from Lactobacillus reuteri DSMZ 17509 (Lactobacillus reuteri); assay: SEC; 190 mL Sephacryl S300 column, 50 mM potassium phosphate buffer pH 7.0, 150 mM NaCl; molecular weight marker kit for gel filtration; oligomer size from the apparent mass against the calculated subunit mass
[2] = biological target: the molecule itself; assay: as above

| Molecule | stoichiometry N [1] | stoichiometry N [2] |
| --- | --- | --- |
| L-arabinose isomerase from Lactobacillus reuteri DSMZ 17509 (enzyme) | 6 |  |
| D-xylose isomerase from Lactobacillus reuteri DSMZ 17509 (enzyme, UniProt Q5QG16 1-449, looked up) MADLWNNIDKIEYEGPHKSIKSGLFYQYYNPDEVILGKKMKDWLRFSVAYWHTFDQRLVDPFGDGTAQRPYDKYSDPMDCALAKVDYAFEFYNKLGVDFLCFHDRDLAPEGDTLRETNKNLDRVVDKIVEYQKATGMKVLWNTSNLFTNPRFLEGAGTAPSAEIYAYAAAQLKHSLEVGKRVGSENYVFWGGREGYESLWNTDMKREQSHIAKFFHMAKDYANEIGFDAQMLLEPKPKEPTTHQYDFDAATTINFMCEYGLDKDFKLNLEGNHANLAGHTYQHEIRVAREAGLLGSLDANQGDKLIGWDIDEYPSNLYETTAAMWEVIQNGSIGPRGGLNFDAKPRRTSFKPVDLFYGHIVGMDSFAAGLRVAAAMKEDGFLDDIIKERYSTWDEGLGKSIEDGNENFASLEEKVIDTPQSELLAATHSDHLEEIKDTINHYMIETLAK |  | 4 |
